Assay results as given in patent US20260232827A1 (Zymeworks, published 2026).

What was measured:
Experiment in all cases: flow cytometry, transfected HEK293-6e cells, antibody 200 nM;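 further: cells incubated with antibody for 24 h at 4 °C, background taken as average MFI of unstained cells without primary antibody, at least 1,000 events per well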
[1] = molecular target: T1, Construct 6 (human NaPi2b del 317-333) (human, UniProt O95436 1-690)
T1 construct: also called CL_#29919
T1 sequence: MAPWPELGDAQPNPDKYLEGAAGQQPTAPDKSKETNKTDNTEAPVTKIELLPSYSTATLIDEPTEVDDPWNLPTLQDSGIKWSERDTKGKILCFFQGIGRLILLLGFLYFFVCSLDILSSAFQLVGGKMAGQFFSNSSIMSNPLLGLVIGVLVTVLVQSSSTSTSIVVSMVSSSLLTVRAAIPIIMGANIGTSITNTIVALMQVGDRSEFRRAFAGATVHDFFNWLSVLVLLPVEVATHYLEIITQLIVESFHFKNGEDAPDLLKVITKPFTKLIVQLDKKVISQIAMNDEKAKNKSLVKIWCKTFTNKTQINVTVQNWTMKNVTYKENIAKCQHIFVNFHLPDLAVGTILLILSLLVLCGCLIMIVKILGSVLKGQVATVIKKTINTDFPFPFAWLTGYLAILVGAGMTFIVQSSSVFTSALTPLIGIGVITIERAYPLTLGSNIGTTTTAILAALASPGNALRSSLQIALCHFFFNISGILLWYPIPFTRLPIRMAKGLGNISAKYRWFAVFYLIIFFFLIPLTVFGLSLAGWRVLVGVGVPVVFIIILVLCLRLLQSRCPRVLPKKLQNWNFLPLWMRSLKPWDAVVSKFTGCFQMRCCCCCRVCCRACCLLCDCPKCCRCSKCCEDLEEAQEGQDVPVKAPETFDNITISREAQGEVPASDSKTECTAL

[2] = molecular target: T2, Construct 1 (chimeric human NaPi2b, swap in NaPi2c in 239-259) (human)
T2 construct: also called CL_#29914

[3] = molecular target: T3, Construct 4 (chimeric human NaPi2b, swap in NaPi2c in 341-358) (human)
T3 construct: also called CL_#13435

[4] = molecular target: T4, Full length human NaPi2b (sodium-dependent phosphate transporter 2B, SLC34A2) (human, UniProt O95436 1-690)
T4 construct: also called huNaPi2b; CL_#13432
T4 sequence: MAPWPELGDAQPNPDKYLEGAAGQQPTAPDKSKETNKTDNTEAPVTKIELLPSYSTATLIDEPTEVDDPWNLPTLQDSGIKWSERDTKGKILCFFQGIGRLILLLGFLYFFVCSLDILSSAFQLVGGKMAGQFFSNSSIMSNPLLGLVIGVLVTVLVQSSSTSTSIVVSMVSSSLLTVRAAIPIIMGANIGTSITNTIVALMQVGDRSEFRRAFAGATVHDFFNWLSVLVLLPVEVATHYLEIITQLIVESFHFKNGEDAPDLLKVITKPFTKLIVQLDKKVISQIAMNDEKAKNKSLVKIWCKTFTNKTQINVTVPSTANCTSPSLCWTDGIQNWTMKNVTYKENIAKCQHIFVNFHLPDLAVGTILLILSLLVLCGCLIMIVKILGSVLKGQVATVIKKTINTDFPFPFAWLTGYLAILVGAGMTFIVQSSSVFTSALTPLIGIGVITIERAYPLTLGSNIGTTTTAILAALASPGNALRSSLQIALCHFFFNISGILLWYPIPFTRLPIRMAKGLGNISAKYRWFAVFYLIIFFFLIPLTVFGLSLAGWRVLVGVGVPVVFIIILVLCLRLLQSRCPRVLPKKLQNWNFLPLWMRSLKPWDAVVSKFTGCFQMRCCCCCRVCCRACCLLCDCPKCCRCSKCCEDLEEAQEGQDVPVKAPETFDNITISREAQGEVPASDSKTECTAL

[5] = molecular target: T5, Construct 5 (chimeric human NaPi2b, swap in NaPi2a in 304-348) (human)
T5 construct: also called CL_#13436

[6] = molecular target: T6, Construct 3 (chimeric human NaPi2b, swap in NaPi2c in 304-321) (human)
T6 construct: also called CL_#29916

[7] = molecular target: T7, Construct 7 (human NaPi2b del 317-326) (human, UniProt O95436 1-690)
T7 construct: also called CL_#29921
T7 sequence: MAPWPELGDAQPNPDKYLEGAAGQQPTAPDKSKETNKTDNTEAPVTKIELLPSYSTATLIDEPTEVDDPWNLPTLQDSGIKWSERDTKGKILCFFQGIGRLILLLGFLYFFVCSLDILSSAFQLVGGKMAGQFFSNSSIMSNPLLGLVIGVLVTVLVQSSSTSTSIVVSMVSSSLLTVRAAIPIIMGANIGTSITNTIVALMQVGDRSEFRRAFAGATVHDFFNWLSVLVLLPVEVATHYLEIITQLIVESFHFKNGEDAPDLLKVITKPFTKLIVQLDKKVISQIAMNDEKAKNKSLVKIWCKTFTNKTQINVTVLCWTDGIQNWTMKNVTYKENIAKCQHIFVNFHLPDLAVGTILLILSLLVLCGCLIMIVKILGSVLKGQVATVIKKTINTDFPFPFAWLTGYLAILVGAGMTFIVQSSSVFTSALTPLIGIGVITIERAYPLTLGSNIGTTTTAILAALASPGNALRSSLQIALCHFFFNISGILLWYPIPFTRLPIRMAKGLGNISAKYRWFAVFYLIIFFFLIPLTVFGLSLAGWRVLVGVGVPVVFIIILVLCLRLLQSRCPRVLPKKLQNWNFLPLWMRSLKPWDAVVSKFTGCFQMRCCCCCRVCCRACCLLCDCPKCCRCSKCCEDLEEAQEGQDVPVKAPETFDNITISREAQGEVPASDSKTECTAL

[8] = molecular target: T8, Construct 2 (chimeric human NaPi2b, swap in NaPi2c in 280-301) (human)
T8 construct: also called CL_#29915

Binder	Background-Subtracted AF647 Mean Fluorescence Intensity [1]	Background-Subtracted AF647 Mean Fluorescence Intensity [2]	Background-Subtracted AF647 Mean Fluorescence Intensity [3]	Background-Subtracted AF647 Mean Fluorescence Intensity [4]	Background-Subtracted AF647 Mean Fluorescence Intensity [5]	Background-Subtracted AF647 Mean Fluorescence Intensity [6]	Background-Subtracted AF647 Mean Fluorescence Intensity [7]	Background-Subtracted AF647 Mean Fluorescence Intensity [8]
v38591 (humanized anti-NaPi2b antibody, H1L2, wild-type Fc, heavy chains with C-terminal lysine) (antibody, human IgG1, kappa, Full-size human IgG1/kappa antibody; also called v38591 (wild-type Fc)) heavy: not shown light: DVQMTQSPSSLSASVGDRVTITCRASQDVYSYLNWYQQKPGKAVKLLIYYTSRLQSGVPSRFSGSGSGTDYTLTISSLQPEDFATYYCQQYNIFPWTFGQGTKLEIKRTVAAPSVFIFPPSDEQLKSGTASVVCLLNNFYPREAKVQWKVDNALQSGNSQESVTEQDSKDSTYSLSSTLTLSKADYEKHKVYACEVTHQGLSSPVTKSFNRGEC	210 MFI	2160 MFI	933 MFI	989 MFI	204 MFI	810 MFI	626 MFI	1410 MFI
MX35 (v18992), reference anti-NaPi2b antibody (antibody, human IgG1, kappa) heavy 1: GQVQLVQSGAEVVKPGASVKMSCKASGYTFTGYNIHWVKQAPGQGLEWIGAIYPGNGDTSYKQKFRGRATLTADTSTSTVYMELSSLRSEDSAVYYCARGETARATFAYWGQGTLVTVSSASTKGPSVFPLAPSSKSTSGGTAALGCLVKDYFPEPVTVSWNSGALTSGVHTFPAVLQSSGLYSLSSVVTVPSSSLGTQTYICNVNHKPSNTKVDKKVEPKSCDKTHTCPPCPAPELLGGPSVFLFPPKPKDTLMISRTPEVTCVVVDVSHEDPEVKFNWYVDGVEVHNAKTKPREEQYNSTYRVVSVLTVLHQDWLNGKEYKCKVSNKALPAPIEKTISKAKGQPREPQVYVYPPSRDELTKNQVSLTCLVKGFYPSDIAVEWESNGQPENNYKTTPPVLDSDGSFALVSKLTVDKSRWQQGNVFSCSVMHEALHNHYTQKSLSLSPG heavy 2: not shown light: GDIQMTQSPSSLSASVGDRVTITCSASQDIGNFLNWYQQKPGKTVKVLIYYTSSLYSGVPSRFSGSGSGTDYTLTISSLQPEDFATYYCQQYSKLPLTFGQGTKLELKRTVAAPSVFIFPPSDEQLKSGTASVVCLLNNFYPREAKVQWKVDNALQSGNSQESVTEQDSKDSTYSLSSTLTLSKADYEKHKVYACEVTHQGLSSPVTKSFNRGEC	-2 MFI	1720 MFI	764 MFI	979 MFI	219 MFI	802 MFI	298 MFI	1360 MFI
lifastuzumab (v18993), reference anti-NaPi2b antibody (antibody, human IgG1, kappa) heavy 1: GEVQLVESGGGLVQPGGSLRLSCAASGFSFSDFAMSWVRQAPGKGLEWVATIGRVAFHTYYPDSMKGRFTISRDNSKNTLYLQMNSLRAEDTAVYYCARHRGFDVGHFDFWGQGTLVTVSSASTKGPSVFPLAPSSKSTSGGTAALGCLVKDYFPEPVTVSWNSGALTSGVHTFPAVLQSSGLYSLSSVVTVPSSSLGTQTYICNVNHKPSNTKVDKKVEPKSCDKTHTCPPCPAPELLGGPSVFLFPPKPKDTLMISRTPEVTCVVVDVSHEDPEVKFNWYVDGVEVHNAKTKPREEQYNSTYRVVSVLTVLHQDWLNGKEYKCKVSNKALPAPIEKTISKAKGQPREPQVYVYPPSRDELTKNQVSLTCLVKGFYPSDIAVEWESNGQPENNYKTTPPVLDSDGSFALVSKLTVDKSRWQQGNVFSCSVMHEALHNHYTQKSLSLSPG heavy 2: not shown light: GDIQMTQSPSSLSASVGDRVTITCRSSETLVHSSGNTYLEWYQQKPGKAPKLLIYRVSNRFSGVPSRFSGSGSGTDFTLTISSLQPEDFATYYCFQGSFNPLTFGQGTKVEIKRTVAAPSVFIFPPSDEQLKSGTASVVCLLNNFYPREAKVQWKVDNALQSGNSQESVTEQDSKDSTYSLSSTLTLSKADYEKHKVYACEVTHQGLSSPVTKSFNRGEC	183 MFI	1510 MFI	744 MFI	893 MFI	302 MFI	943 MFI	21 MFI	1230 MFI
palivizumab (v21995), anti-RSV antibody, negative control (antibody, human IgG1, kappa, V domains shown) VH: QVTLRESGPALVKPTQTLTLTCTFSGFSLSTSGMSVGWIRQPPGKALEWLADIWWDDKKDYNPSLKSRLTISKDTSKNQVVLKVTNMDPADTATYYCARSMITNWYFDVWGAGTTVTVSS VL: DIQMTQSPSTLSASVGDRVTITCKSQLSVGYMHWYQQKPGKAPKLLIYDTSKLASGVPSRFSGSGSGTEFTLTISSLQPDDFATYYCFQGSGYPFTFGGGTKLEIKR	2 MFI	12 MFI	12 MFI	19 MFI	40 MFI	-5 MFI	-97 MFI	-30 MFI
